The text below walks through data of patent US20240287166A1 (published 2024).

The target in this assay is T1, CSP on P. falciparum sporozoites (Plasmodium falciparum, UniProt P19597 19-374).
T1 construct: whole, on cells; also called P. falciparum sporozoites, which present CSP in its native conformation
Put plainly: sporozoite ELISA, mouse sera Day 7 (FIG. 6D). (In general: An ELISA detects its analyte on a solid surface through an enzyme-linked reagent.)

T1 sequence (P19597 19-374): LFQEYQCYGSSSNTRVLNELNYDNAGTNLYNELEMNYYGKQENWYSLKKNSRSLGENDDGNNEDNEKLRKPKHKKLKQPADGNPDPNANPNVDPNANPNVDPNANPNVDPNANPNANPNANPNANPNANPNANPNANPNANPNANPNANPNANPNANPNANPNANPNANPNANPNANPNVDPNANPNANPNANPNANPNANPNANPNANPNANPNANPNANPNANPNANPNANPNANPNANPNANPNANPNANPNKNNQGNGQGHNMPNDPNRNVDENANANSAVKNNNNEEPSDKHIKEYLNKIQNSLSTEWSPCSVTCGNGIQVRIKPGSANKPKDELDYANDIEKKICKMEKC

B1: 10e DMAb-2 (antibody, human IgG1, lambda, V domains shown)
VH: QVQLVESGGGVVQPGRSLRLSCAASGFAFSNYGMHWVRQAPGKGLEWVAVIWHDGSLKYYTQSVKGRFTISRDNSKNTLYLQMNSLRAEDTAVYYCTVWYLETPDDGFDIWGQGTMVTVSS
VL: QLVLTQPPSASASLGVSVTLTCTLSHGHTSKAIAWHQQQPGKGPRYLMKVNSDGSHTKGAAVPDRFSGSTSGAERHFTISNLQSDDEADYYCQAWDSGIWVFGGGTKLTVLG
notes: also called MGU10-based engineered DMAb 2; 10e DMAb-2 (MGU10 VH-1 / MGU10 VL)
On to B1, for which the binding result is “binds”.
